Laboratory results reported in publication PMC8636641.

Test system: dTao (Drosophila melanogaster)
Assay: fluorescence quenching (initial fluorescence, MST instrument)
Settings: inosine homopolymer strand; Pull-down: TAP buffer 50 mM Tris pH 7.5, 100 mM NaCl, 5% glycerol, 0.2% NP-40, 1.5 mM MgCl2, 60 min; quenching assay buffer not stated (dTao storage 20 mM Tris …)

Substance: FITC-poly(I:C)
- Kd: 42 nM
